The target in assay [1] is S. pombe Mre11 catalytic domain, SpMre11_(15–413) (S. pombe). Put plainly: crystal structure.
Assay [2] has the same target. The experiment in a line: crystal structure. This is another data set of the same source.
For assay [3], the target named is SpMre11^cd R85A (S. pombe).
For assay [4], the target named is S. pombe Mre11 catalytic domain, SpMre11_(15–413) (S. pombe). Put plainly: crystal structure. This is another data set of the same source.

Read-outs that look alike come from different tables or passages of the source.

Consider “S. pombe Mre11 catalytic domain, SpMre11_(15–413) (domain or fragment)”, for which the stoichiometry N in assay [1] and in assay [2] was 2 each time.

For the molecule SpMre11^cd R85A (domain or fragment), the stoichiometry N in assay [3] came to 2.

B1: S. pombe Nbs1 Mre11 interacting region, residues 474–531 (domain or fragment)
chain: ESEDDKAFEENRRLRNLGSVEYIRIMSSEKSNANSRHTSKYYSGRKNFKKFQKKASQK
As to B1, the stoichiometry N (Nbs1 per Mre11 (2:2)) in assay [4] worked out at 1.

For orientation: stoichiometry N means a count of units in the complex or per binding partner.

Source of the values: publication PMC3392456.
